Test results from article PMC8578495.
Where two headings read alike, the source gives them in different places.

For Mps1: K827R, the expression_or_secretion (ubiquitination at K827) was “increases”.

With Mps1: K848R the expression_or_secretion (ubiquitination at K848) was “increases”.

With Mps1: RRR (K86R, K827R, K848R) the expression_or_secretion (ubiquitination at K86) was “increases”, the expression_or_secretion (ubiquitination at K827) was “increases” and the expression_or_secretion (ubiquitination at K848) was “increases”.

For Mps1: K86R, the expression_or_secretion (ubiquitination at K86) was “increases”.
